This sample holds only a part of the variants without activity.

For one data set, the system named is biotinyl-Phe-oxazolone. The data set can be described thus: self-aminoacylation, catalytic enhancement (BFO) (fold over background); higher = more active; k-Seq, kA / k0A0; sequences stand for … in GGGAAUGGAUCCACAUCUACGAAUUC…UUCACUGCAGACUUGACGAAGCUG
The method, boiled down:
(§1)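 Working in 50 μL HEPES/NaCl/KCl/MgCl2/CaCl2 buffer with 5% acetonitrile at pH 6.9–7.0, mutagenized RNA pools (0.43 μM; 21-nt variable region) were reacted with 2–1250 μM of each biotinyl-aminoacyl-oxazolone for 90 minutes at room temperature. Streptavidin capture followed, with quantification by triplicate qPCR and Illumina sequencing. Catalytic enhancement is reported as median kA over the uncatalyzed rate, the low-activity peak of a bimodal Gaussian fit to the data.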

For the next data set, the system named is biotinyl-Ile-oxazolone. The data set can be described thus: self-aminoacylation, catalytic enhancement (BIO) (fold over background); higher = more active; k-Seq, kA / k0A0; sequences stand for … in GGGAAUGGAUCCACAUCUACGAAUUC…UUCACUGCAGACUUGACGAAGCUG
The method in brief: as §1

A further data set concerns biotinyl-Met-oxazolone. The experiment in a line: self-aminoacylation, catalytic enhancement (BMO) (fold over background); higher = more active; k-Seq, kA / k0A0; sequences stand for … in GGGAAUGGAUCCACAUCUACGAAUUC…UUCACUGCAGACUUGACGAAGCUG
The method, boiled down: as §1

A further data set deals with biotinyl-Val-oxazolone. The data set can be described thus: self-aminoacylation, catalytic enhancement (BVO) (fold over background); higher = more active; k-Seq, kA / k0A0; sequences stand for … in GGGAAUGGAUCCACAUCUACGAAUUC…UUCACUGCAGACUUGACGAAGCUG
The method, boiled down:
as §1

The next data set concerns biotinyl-Leu-oxazolone. The data set can be described thus: self-aminoacylation, catalytic enhancement (BLO) (fold over background); higher = more active; k-Seq, kA / k0A0; sequences stand for … in GGGAAUGGAUCCACAUCUACGAAUUC…UUCACUGCAGACUUGACGAAGCUG
The method in brief: as §1

Another data set relates to biotinyl-Trp-oxazolone. The data set can be described thus: self-aminoacylation, catalytic enhancement (BWO) (fold over background); higher = more active; k-Seq, kA / k0A0; sequences stand for … in GGGAAUGGAUCCACAUCUACGAAUUC…UUCACUGCAGACUUGACGAAGCUG
The method in brief:
as §1

“AGGUUUGCUAGUAGUCGCAAG [Fam3.1 aminoacylation ribozyme variant]”: the self-aminoacylation with biotinyl-Phe-oxazolone amounted to 1.49; with biotinyl-Ile-oxazolone, 0.918; in the data set with biotinyl-Met-oxazolone, 0.787; in the data set with biotinyl-Val-oxazolone, 0.894; in the data set with biotinyl-Leu-oxazolone, 0.945; in the data set on biotinyl-Trp-oxazolone, 0.88.
As to “AGUACCCUCGUCAUCGAGUGA [Fam2.1 aminoacylation ribozyme variant]”, the self-aminoacylation with biotinyl-Phe-oxazolone was 18.8; in the data set on biotinyl-Ile-oxazolone, 2.37; in the data set on biotinyl-Met-oxazolone, 3.19; in the data set with biotinyl-Val-oxazolone, 2.08; with biotinyl-Leu-oxazolone, 3.97; in the data set with biotinyl-Trp-oxazolone, 3.06.
Consider “AGUACCCUGGUCAGCGAGUGA [Fam2.1 aminoacylation ribozyme variant]”, for which the self-aminoacylation in the data set on biotinyl-Phe-oxazolone worked out at 36.4; with biotinyl-Ile-oxazolone, 3.51; with biotinyl-Met-oxazolone, 4.42; in the data set on biotinyl-Val-oxazolone it was 3.45; with biotinyl-Leu-oxazolone it was 6.63; with biotinyl-Trp-oxazolone, 7.2.
For “AGUACCCUGGUCAUCGACUGA [Fam2.1 aminoacylation ribozyme variant]”, the self-aminoacylation in the data set on biotinyl-Phe-oxazolone worked out at 0.572; in the data set with biotinyl-Ile-oxazolone, 1.34; in the data set with biotinyl-Met-oxazolone it was 1.1; with biotinyl-Val-oxazolone, 1.07; in the data set with biotinyl-Leu-oxazolone it was 0.974; in the data set on biotinyl-Trp-oxazolone it was 1.01.
For the sequence “AGUACCCUGGUCAUCGAGGGA [Fam2.1 aminoacylation ribozyme variant]”, the self-aminoacylation was determined as 1.82 in the data set with biotinyl-Phe-oxazolone; 1.43 in the data set with biotinyl-Ile-oxazolone; 1.22 with biotinyl-Met-oxazolone; 1.47 in the data set with biotinyl-Val-oxazolone; 2.21 with biotinyl-Leu-oxazolone; 2.91 with biotinyl-Trp-oxazolone.
Take “AGUACCCUGGUCAUCGCGUGA [Fam2.1 aminoacylation ribozyme variant]”: the self-aminoacylation was determined as 128 with biotinyl-Phe-oxazolone; 8.36 in the data set on biotinyl-Ile-oxazolone; 19.4 with biotinyl-Met-oxazolone; 12.2 with biotinyl-Val-oxazolone; 20.3 with biotinyl-Leu-oxazolone; 20.5 with biotinyl-Trp-oxazolone.
For “AGUACCCUGGUCAUGGAGUGA [Fam2.1 aminoacylation ribozyme variant]”, the self-aminoacylation with biotinyl-Phe-oxazolone came out at 11; in the data set on biotinyl-Ile-oxazolone, 2.31; in the data set with biotinyl-Met-oxazolone it was 2.7; in the data set with biotinyl-Val-oxazolone, 2.27; in the data set on biotinyl-Leu-oxazolone it was 3.1; with biotinyl-Trp-oxazolone, 2.82.
With “AGUACCCUGGUCAUUGAGUGA [Fam2.1 aminoacylation ribozyme variant]”, the self-aminoacylation stood at 37.2 in the data set on biotinyl-Phe-oxazolone; 3.86 in the data set on biotinyl-Ile-oxazolone; 6.37 in the data set with biotinyl-Met-oxazolone; 3.39 in the data set with biotinyl-Val-oxazolone; 7.4 in the data set on biotinyl-Leu-oxazolone; 9.07 in the data set with biotinyl-Trp-oxazolone.
Turning to “AGUACCCUGGUGAUCGAGUGA [Fam2.1 aminoacylation ribozyme variant]”, the self-aminoacylation is 30.2 in the data set on biotinyl-Phe-oxazolone; 2.76 in the data set on biotinyl-Ile-oxazolone; 5.62 with biotinyl-Met-oxazolone; 2.92 with biotinyl-Val-oxazolone; 5.58 with biotinyl-Leu-oxazolone; 5.32 with biotinyl-Trp-oxazolone.
As to “AGUACCCUGUUCAUCGAGUGA [Fam2.1 aminoacylation ribozyme variant]”, the self-aminoacylation came to 17.4 with biotinyl-Phe-oxazolone; 2.36 in the data set on biotinyl-Ile-oxazolone; 4.14 with biotinyl-Met-oxazolone; 2.45 in the data set on biotinyl-Val-oxazolone; 4.46 in the data set on biotinyl-Leu-oxazolone; 4.52 in the data set with biotinyl-Trp-oxazolone.
“AGUACGCUGGUCAUCGAGUGA [Fam2.1 aminoacylation ribozyme variant]”: the self-aminoacylation with biotinyl-Phe-oxazolone worked out at 14.4; with biotinyl-Ile-oxazolone, 3.17; in the data set with biotinyl-Met-oxazolone, 2.82; in the data set on biotinyl-Val-oxazolone, 3.21; with biotinyl-Leu-oxazolone it was 4.19; in the data set on biotinyl-Trp-oxazolone, 5.19.
Turning to “AGUACUCUGGUCAUCGAGUGA [Fam2.1 aminoacylation ribozyme variant]”, the self-aminoacylation is 11.4 in the data set with biotinyl-Phe-oxazolone; 3.14 in the data set on biotinyl-Ile-oxazolone; 4.15 with biotinyl-Met-oxazolone; 3.01 in the data set with biotinyl-Val-oxazolone; 3.94 with biotinyl-Leu-oxazolone; 3.97 in the data set with biotinyl-Trp-oxazolone.
On to “AGUAUCCUGGUCAUCGAGUGA [Fam2.1 aminoacylation ribozyme variant]”, for which the self-aminoacylation amounted to 20.7 with biotinyl-Phe-oxazolone; 4.12 with biotinyl-Ile-oxazolone; 6.72 in the data set on biotinyl-Met-oxazolone; 4 with biotinyl-Val-oxazolone; 7.39 with biotinyl-Leu-oxazolone; 8.53 in the data set on biotinyl-Trp-oxazolone.
Consider “AGUCACAUAGGUCAUCGGGUG [Fam2.2 aminoacylation ribozyme variant]”, for which the self-aminoacylation came out at 63.6 in the data set on biotinyl-Phe-oxazolone; 7.04 in the data set with biotinyl-Ile-oxazolone; 8.54 with biotinyl-Met-oxazolone; 6.38 in the data set with biotinyl-Val-oxazolone; 10.2 in the data set on biotinyl-Leu-oxazolone; 9.51 in the data set on biotinyl-Trp-oxazolone.
As to “AGUCACCAAGGUCAUCGGGUG [Fam2.2 aminoacylation ribozyme variant]”, the self-aminoacylation stood at 51.2 with biotinyl-Phe-oxazolone; 4.38 in the data set with biotinyl-Ile-oxazolone; 6.59 with biotinyl-Met-oxazolone; 4.7 with biotinyl-Val-oxazolone; 7.67 with biotinyl-Leu-oxazolone; 7.87 with biotinyl-Trp-oxazolone.
Consider “AGUCACCUAGGUCAUAGGGUG [Fam2.2 aminoacylation ribozyme variant]”, for which the self-aminoacylation with biotinyl-Phe-oxazolone stood at 9.22; in the data set on biotinyl-Ile-oxazolone, 2.18; with biotinyl-Met-oxazolone it was 3.12; with biotinyl-Val-oxazolone, 2.17; in the data set with biotinyl-Leu-oxazolone, 2.56; in the data set on biotinyl-Trp-oxazolone it was 2.56.
Consider “AGUCACCUAGGUCAUCGAGUG [Fam2.2 aminoacylation ribozyme variant]”, for which the self-aminoacylation turned out to be 6.67 in the data set on biotinyl-Phe-oxazolone; 3.67 with biotinyl-Ile-oxazolone; 4.24 with biotinyl-Met-oxazolone; 3.16 with biotinyl-Val-oxazolone; 5.93 in the data set on biotinyl-Leu-oxazolone; 4.19 in the data set with biotinyl-Trp-oxazolone.
In the case of “AGUCACCUAGGUCAUCGGGUC [Fam2.2 aminoacylation ribozyme variant]”, the self-aminoacylation in the data set on biotinyl-Phe-oxazolone is 4.41; in the data set with biotinyl-Ile-oxazolone it was 1.46; in the data set on biotinyl-Met-oxazolone, 2.13; with biotinyl-Val-oxazolone, 1.7; in the data set on biotinyl-Leu-oxazolone, 1.82; in the data set with biotinyl-Trp-oxazolone, 1.69.
For “AGUCACCUAGGUCAUCGGGUG [Fam2.2 aminoacylation ribozyme variant]”, the self-aminoacylation worked out at 38.1 with biotinyl-Phe-oxazolone; 4.81 in the data set with biotinyl-Ile-oxazolone; 6.24 in the data set with biotinyl-Met-oxazolone; 4.99 with biotinyl-Val-oxazolone; 6.74 with biotinyl-Leu-oxazolone; 7.24 in the data set with biotinyl-Trp-oxazolone.
With “AGUCACCUAGGUCAUGGGGUG [Fam2.2 aminoacylation ribozyme variant]”, the self-aminoacylation with biotinyl-Phe-oxazolone was determined as 29.2; with biotinyl-Ile-oxazolone it was 3.57; with biotinyl-Met-oxazolone, 5.58; in the data set on biotinyl-Val-oxazolone, 4.11; in the data set with biotinyl-Leu-oxazolone, 5.97; with biotinyl-Trp-oxazolone it was 5.76.
As for “AGUCACCUAGGUCAUUGGGUG [Fam2.2 aminoacylation ribozyme variant]”, the self-aminoacylation in the data set on biotinyl-Phe-oxazolone is 25.8; in the data set on biotinyl-Ile-oxazolone it was 3.03; in the data set on biotinyl-Met-oxazolone it was 4.22; in the data set with biotinyl-Val-oxazolone, 3.26; with biotinyl-Leu-oxazolone it was 4.04; with biotinyl-Trp-oxazolone, 3.42.
As to “AGUCACCUAGGUCCUCGGGUG [Fam2.2 aminoacylation ribozyme variant]”, the self-aminoacylation in the data set on biotinyl-Phe-oxazolone came out at 37.5; in the data set with biotinyl-Ile-oxazolone, 5.66; in the data set with biotinyl-Met-oxazolone, 6.34; in the data set on biotinyl-Val-oxazolone it was 4.64; with biotinyl-Leu-oxazolone it was 6.54; with biotinyl-Trp-oxazolone, 9.19.
For “AGUCACCUAGUUCAUCGGGUG [Fam2.2 aminoacylation ribozyme variant]”, the self-aminoacylation turned out to be 24 in the data set on biotinyl-Phe-oxazolone; 3.71 in the data set with biotinyl-Ile-oxazolone; 4.14 with biotinyl-Met-oxazolone; 3.29 in the data set with biotinyl-Val-oxazolone; 4.05 in the data set with biotinyl-Leu-oxazolone; 5.16 in the data set with biotinyl-Trp-oxazolone.
With “AGUCACCUCGGUCAUCGGGUG [Fam2.2 aminoacylation ribozyme variant]”, the self-aminoacylation came out at 44.4 in the data set on biotinyl-Phe-oxazolone; 4.47 in the data set with biotinyl-Ile-oxazolone; 6.27 with biotinyl-Met-oxazolone; 4.18 with biotinyl-Val-oxazolone; 6.23 in the data set with biotinyl-Leu-oxazolone; 7.18 with biotinyl-Trp-oxazolone.
As for “AGUCAGCUAGGUCAUCGGGUG [Fam2.2 aminoacylation ribozyme variant]”, the self-aminoacylation in the data set on biotinyl-Phe-oxazolone was found to be 58.2; in the data set with biotinyl-Ile-oxazolone, 5.42; in the data set on biotinyl-Met-oxazolone it was 5.84; with biotinyl-Val-oxazolone, 5.51; in the data set on biotinyl-Leu-oxazolone it was 6.1; in the data set with biotinyl-Trp-oxazolone it was 9.92.

The values above are taken from the supplement of paper PMC9233669.
